B1: Azoarcus group I ribozyme (parent)
chain: GUGCCUUGCGCCGGGAAACCACGCAAGGGAUGGUGUCAAAUUCGGCGAAACCUAAGCGCCCGCCCGGGCGUAUGGCAACGCCGAGCCAAGCUUCGGCGCCUGCGCCGAUGAAGGUGUAGAGACUAGACGGCACCCACCUAAGGCAAACGCUAUGGUGAAGGCAUAGUCCAGGGAGUGGCGAAAGUCACACAAACCGG

Variants of: B1
Assay: reverse-splicing fitness (ratio to wild type); higher = more active; in vitro selection; Mg2+ level not given
How it was run: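 An in vitro group I ribozyme library with randomized positions was T7-transcribed and gel-purified. In triplicate, 10 pmol RNA in EPPS pH 7.5 was reacted with 50 pmoles of a 30-nt RNA substrate for 1 h at 37 °C across several added MgCl2 levels (1–48 mM), then stopped with EDTA. Products were reverse transcribed from a substrate-complementary primer, PCR-amplified and sequenced (HiSeq 4000). Fitness is a variant's read proportion after selection over that before, normalised to wild type.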

| Variant | reverse-splicing fitness |
| --- | --- |
| C82A A120U A145C C169G U176A | 0.00227 |
| C82A A120U A145C C169G U176C | 0.00235 |
| C82A A120U A145C C169G U176G | 0.00139 |
| C82A A120U A145G C150G C169G U176C | 0.00694 |
| C82A A120U A145G C150G C169G U176A | 0.00824 |
| C82A A120U A145G C150G C169G U176G | 0.00415 |
| C82A A120G C169A U176C | 0.0236 |
| C82A A120G C169A U176A | 0.0187 |
| C82A A120G C169A U176G | 0.00374 |
| C82A A120U A145C C169U U176A | 0.00271 |
| C82A A120U A145C C169U U176C | 0.00274 |
| C82A A120U A145C C169U U176G | 0.00109 |
| C82A A120U A145G C150A C169G | 0.00494 |
| C82A A120U A145G C150A C169U | 0.00423 |
| C82A A120U A145G C150A C169A | 0.00563 |
| C82A A120U A145G C150A C169G U176A | 0.00661 |
| C82A A120U A145G C150A C169G U176G | 0.00227 |
| C82A A120U A145G C150A C169G U176C | 0.00523 |
| C82A A120U A145G C150A U176A | 0.0103 |
| C82A A120U A145G C150A U176C | 0.0142 |
| C82A A120U A145G C150A U176G | 0.00391 |

| Variant | reverse-splicing fitness |
| --- | --- |
| C82A A120U A145G C150U C169G U176C | 0.0042 |
| C82A A120U A145G C150U C169G U176G | 0.00214 |
| C82A A120U A145G C150U C169G U176A | 0.00591 |
| C82A A120U A145U C169U U176A | 0.00202 |
| C82A A120U A145U C169U U176G | 0.00154 |
| C82A A120U A145U C169U U176C | 0.00276 |
| C82A A120U A145U C150G C169G U176G | 0.00188 |
| C82A A120U A145U C150G C169G U176C | 0.00221 |
| C82A A120U A145U C150G C169G U176A | 0.00253 |
| C82A A120U A145G C150G C169U U176A | 0.00865 |
| C82A A120U A145G C150G C169U U176G | 0.00419 |
| C82A A120U A145G C150G C169U U176C | 0.00657 |
| C82A A120G A145U C150U C169U U176A | 0.0201 |
| C82A A120G A145U C150U C169U U176C | 0.0174 |
| C82A A120G A145U C150U C169U U176G | 0.00449 |
| C82A A120U C150G C169A U176G | 0.00312 |
| C82A A120U C150G C169A U176A | 0.00498 |
| C82A A120U C150G C169A U176C | 0.00411 |
| C82A A120G C169A | 0.0152 |
| C82A A120G C169G | 0.0233 |
| C82A A120G C169U | 0.0166 |

| Variant | reverse-splicing fitness |
| --- | --- |
| C82A A120U A145U C150A C169A U176A | 0.0022 |
| C82A A120U A145U C150A C169A U176G | 0.00186 |
| C82A A120U A145U C150A C169A U176C | 0.00188 |
| C82A A120G C150U U176A | 0.0125 |
| C82A A120G C150U U176C | 0.015 |
| C82A A120G C150U U176G | 0.00727 |
| C82A A120U A145C C150A C169G U176C | 0.00352 |
| C82A A120U A145C C150A C169G U176G | 0.00139 |
| C82A A120U A145C C150A C169G U176A | 0.00253 |
| C82A A120U A145C C150U U176C | 0.0147 |
| C82A A120U A145C C150U U176G | 0.00464 |
| C82A A120U A145C C150U U176A | 0.00945 |
| C82A A120U A145C C150G C169U U176C | 0.00254 |
| C82A A120U A145C C150G C169U U176A | 0.00283 |
| C82A A120U A145C C150G C169U U176G | 0.00175 |
| C82A A120U C150G U176C | 0.00779 |
| C82A A120U C150G U176A | 0.00566 |
| C82A A120U C150G C169G U176G | 0.00232 |
| C82A A120U C150G C169G U176C | 0.00251 |
| C82A A120U C150G C169G U176A | 0.00506 |
| C82A A120U A145C U176G | 0.00979 |

| Variant | reverse-splicing fitness |
| --- | --- |
| C82A A120U A145C U176C | 0.0456 |
| C82A A120U A145C U176A | 0.0307 |
| C82A A120U A145G C150G U176A | 0.00758 |
| C82A A120U A145G C150G U176G | 0.00433 |
| C82A A120U A145G C150G U176C | 0.0117 |
| C82A A120G C150G C169A | 0.00866 |
| C82A A120G C150G C169U | 0.0095 |
| C82A A120G C150G C169G | 0.00786 |
| C82A A120U A145C C150A C169A U176G | 0.00198 |
| C82A A120U A145C C150A C169A U176A | 0.00185 |
| C82A A120U A145C C150A C169A U176C | 0.00238 |
| C82A A120G A145U C150U C169A U176C | 0.0113 |
| C82A A120G A145U C150U C169A U176G | 0.00418 |
| C82A A120G A145U C150U C169A U176A | 0.013 |
| C82A A120G C150U C169U | 0.0111 |
| C82A A120G C150U C169G | 0.0157 |
| C82A A120G C150U C169A | 0.0136 |
| C82A A120U A145U C169A | 0.00202 |
| C82A A120U A145U C169G | 0.00509 |
| C82A A120U A145U C169U | 0.0055 |

— the RNAGym collection of RNA variant scans (doi:10.1093/molbev/msab373)
